Experimental findings from patent US7255862 are described below.

Experiment [1] deals with feline immunodeficiency virus (FIV) Env, Villefranche strain, expressed by ALVAC recombinants vCP242 / vCP255 (feline immunodeficiency virus, Villefranche strain). As to the kind of experiment: sandwich kinetic ELISA, plate coated with pooled FIV env-specific MAb 2 ug/well, env lysate 1 ug/well, control rabbit serum 1:100. A general note: In an ELISA, binding on a coated surface is turned into a signal by an enzyme label.

For experiment [2] the target is unchanged. As to the kind of experiment: sandwich kinetic ELISA, plate coated with pooled FIV env-specific MAb 2 ug/well, env lysate 5 ug/well, control rabbit serum 1:100.
The target is the same in experiment [3]. As to the kind of experiment: sandwich kinetic ELISA, plate coated with pooled FIV env-specific MAb 2 ug/well, env lysate 0.2 ug/well, control rabbit serum 1:100.
Experiment [4] has the same target. As to the kind of experiment: sandwich kinetic ELISA, plate coated with pooled FIV gag-specific MAb 2 ug/well (mismatched capture control), env lysate 1 ug/well, control rabbit serum 1:100.
Experiment [5] has the same target. As to the kind of experiment: sandwich kinetic ELISA, plate coated with pooled FIV gag-specific MAb 2 ug/well (mismatched capture control), env lysate 5 ug/well, control rabbit serum 1:100.
The target is the same in experiment [6]. As to the kind of experiment: sandwich kinetic ELISA, plate coated with pooled FIV gag-specific MAb 2 ug/well (mismatched capture control), env lysate 0.2 ug/well, control rabbit serum 1:100.

With Rabbit A039 prebleed serum, the KELISA (mOD/min) in experiment [1] turned out to be 0.7 mOD/min; in experiment [2] it was 0.9 mOD/min; in experiment [3], 0.9 mOD/min; in experiment [4], 1.2 mOD/min; in experiment [5], 1 mOD/min; in experiment [6] it was 1 mOD/min.
